# Values quoted from earlier work in publication PMC7349879.
# How the values were obtained:
# [1] = target: EpCAM cis-dimer (Homo sapiens) (UniProt P16422)
# EpCAM (Homo sapiens) = EpCAM (Homo sapiens) (UniProt P16422)
# β-catenin (Homo sapiens) = β-catenin (Homo sapiens) (UniProt P35222)
# UniProt P35222, sequence (P35222 2-781): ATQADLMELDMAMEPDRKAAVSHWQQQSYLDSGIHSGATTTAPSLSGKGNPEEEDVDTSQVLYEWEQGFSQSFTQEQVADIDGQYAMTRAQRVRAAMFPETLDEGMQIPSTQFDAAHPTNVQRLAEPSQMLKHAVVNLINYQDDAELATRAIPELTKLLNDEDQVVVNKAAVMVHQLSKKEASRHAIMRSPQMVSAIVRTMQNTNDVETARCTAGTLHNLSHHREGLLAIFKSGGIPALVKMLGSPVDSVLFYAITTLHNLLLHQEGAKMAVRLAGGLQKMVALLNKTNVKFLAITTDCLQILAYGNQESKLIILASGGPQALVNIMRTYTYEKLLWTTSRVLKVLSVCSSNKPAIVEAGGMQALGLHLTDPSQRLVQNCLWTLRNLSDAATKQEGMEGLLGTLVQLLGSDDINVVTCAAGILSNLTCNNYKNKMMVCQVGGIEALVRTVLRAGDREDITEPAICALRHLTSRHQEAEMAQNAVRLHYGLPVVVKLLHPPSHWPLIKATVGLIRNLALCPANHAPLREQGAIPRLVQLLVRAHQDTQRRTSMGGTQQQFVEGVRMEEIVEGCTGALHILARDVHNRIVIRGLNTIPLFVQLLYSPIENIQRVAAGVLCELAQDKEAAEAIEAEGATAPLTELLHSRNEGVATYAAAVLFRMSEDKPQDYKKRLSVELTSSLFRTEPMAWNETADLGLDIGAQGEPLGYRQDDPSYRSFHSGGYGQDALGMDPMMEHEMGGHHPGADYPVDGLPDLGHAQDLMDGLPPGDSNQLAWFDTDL
substance,measurement,setting,value
EpCAM cis-dimer (from UniProt P16422),Kd,[1],10000 nM
EpCAM (from UniProt P16422),Kd,EpCAM (Homo sapiens),< 10 nM
FHL2 (from UniProt Q14192),Kd,β-catenin (Homo sapiens),1080 nM
